# Patent US20190367620A1 (Merck KGaA, published 2019)
# Numbering of substitutions follows the chain as printed.
# T1: FGFR1 D2 point mutant G93A (human, UniProt P11362 22-254)
# T1 chain: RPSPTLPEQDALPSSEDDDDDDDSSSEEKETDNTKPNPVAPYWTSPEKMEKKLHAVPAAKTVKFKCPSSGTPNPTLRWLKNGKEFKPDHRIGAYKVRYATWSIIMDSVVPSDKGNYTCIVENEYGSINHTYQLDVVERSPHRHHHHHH
# T2: FGFR1 D2 point mutant A55G (human, UniProt P11362 22-254)
# T2 chain: T1 chain with A55G, A93G
# T3: FGFR1 D2 point mutant G92A (human, UniProt P11362 22-254)
# T3 chain: T1 chain with G92A, A93G
# T4: FGFR1 D2 point mutant H54A (human, UniProt P11362 22-254)
# T4 chain: T1 chain with H54A, A93G
# T5: FGFR1 D2 point mutant T100A (human, UniProt P11362 22-254)
# T5 chain: T1 chain with A93G, T100A
# T6: FGFR1 D2 point mutant E47A (human, UniProt P11362 22-254)
# T6 chain: T1 chain with E47A, A93G
# T7: FGFR1 D2 point mutant P57A (human, UniProt P11362 22-254)
# T7 chain: T1 chain with P57A, A93G
# T8: FGFR1 D2 point mutant Y94A (human, UniProt P11362 22-254)
# T8 construct: Uncharacteristic melting curve
# T8 chain: T1 chain with A93G, Y94A
# B1: mAb #A08 (antibody, V domains shown)
# VH: EVQLQESGPGLVKPSGTLSLTCAVSGGSISSNNWWSWVRQPPGKGLEWIGEIYHSGSTSYNPSLKSRVTISVDKSKNQFSLKLNSVTAADTAVYYCARGTDWFDPWGQGTLVTVSS
# VL: QAVLTQPPSVSVAPGQTARITCGGNNIGSESVHWYQQKPGQAPVLVVYDDSDRPSGIPERFSGSNSGNTATLTISRVEAGDEADYYCQVWDSTSDHRVFGGGTKLTVL
# notes: Only variable domains are tied to the name mAb #A08 (hit); also called #A08 hit; mAb #08
# Legend:
# Assay in all cases: SPR as in Example 1.8
# [1] = biological target: T1, FGFR1 D2 point mutant G93A
# Summary of the method: (§1)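 Anti-FGFR1 mAb captured via immobilised anti-human Fc to ~200 RU; 2-fold dilutions of His-tagged FGFR1 (wild-type or HEK-expressed point mutants, Ala→Gly for native Ala) injected at 25° C in HBS-EP+. kon/koff from 1:1 Langmuir fit; KD = koff/kon.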
# [2] = biological target: T2, FGFR1 D2 point mutant A55G
# Summary of the method: as §1
# [3] = biological target: T3, FGFR1 D2 point mutant G92A
# Summary of the method: as §1
# [4] = biological target: T4, FGFR1 D2 point mutant H54A
# Summary of the method: as §1
# [5] = biological target: T5, FGFR1 D2 point mutant T100A
# Summary of the method: as §1
# [6] = biological target: T6, FGFR1 D2 point mutant E47A
# Summary of the method: as §1
# [7] = biological target: T7, FGFR1 D2 point mutant P57A
# Summary of the method: as §1
# [8] = biological target: T8, FGFR1 D2 point mutant Y94A
# Summary of the method: as §1
binder,measurement,setting,value
B1,Kd,[1],0.32 nM
same,Kd,[2],0.22 nM
same,Kd,[3],0.28 nM
same,Kd,[4],0.36 nM
same,Kd,[5],0.24 nM
same,Kd,[6],0.26 nM
same,Kd,[7],0.41 nM
same,Kd,[8],0.99 nM
